Laboratory results from article PMC7292828, “Mechanical unfolding of a knotted protein unveils the kinetic and thermodynamic consequences of threading a polypeptide chain” (Scientific Reports, 2020).

Target: the molecule itself
Assay: SEC; size exclusion chromatography on a Superdex S75 column (GE Healthcare); dimeric state in solution

Protein | stoichiometry N
MJ0366 from Methanocaldococcus jannaschii, wild type (natural protein, UniProt Q57812 1-92, looked up, MJ0366, Methanocaldococcus jannaschii, knotted protein of 92 residues; If it was, ENLYFQ would remain at the C-terminus; also called wild type protein) MPLVGFMKEKKRATFYLYKNIDGRKLRYLLHKLENVENVDIDTLRRAIEAEKKYKRSITLTEEEEVIIQRLGKSANLLLNCELVKLDEGERA | 2
MJ0366 construct F6C/G89C in the background of C81A (natural protein, Methanocaldococcus jannaschii, UniProt Q57812 1-92, looked up, MJ0366, Methanocaldococcus jannaschii, 92 residues; double cysteine mutant with C81A; A TEV site ENLYFQG stands between the C-terminus and the His tag; also called K6C/K89C (as printed once in the discussion)) MPLVGCMKEKKRATFYLYKNIDGRKLRYLLHKLENVENVDIDTLRRAIEAEKKYKRSITLTEEEEVIIQRLGKSANLLLNAELVKLDECERA | 2
MJ0366 construct K19C/K73C in the background of C81A (natural protein, Methanocaldococcus jannaschii, UniProt Q57812 1-92, looked up, MJ0366, Methanocaldococcus jannaschii, 92 residues; double cysteine mutant with C81A; A TEV site ENLYFQG stands between the C-terminus and the His tag; also called F19C/K73C (as printed once in the results)) MPLVGFMKEKKRATFYLYCNIDGRKLRYLLHKLENVENVDIDTLRRAIEAEKKYKRSITLTEEEEVIIQRLGCSANLLLNAELVKLDEGERA | 2
MJ0366 construct F6C/K73C in the background of C81A (natural protein, Methanocaldococcus jannaschii, UniProt Q57812 1-92, looked up, MJ0366, Methanocaldococcus jannaschii, 92 residues; double cysteine mutant with C81A; A TEV site ENLYFQG stands between the C-terminus and the His tag) MPLVGCMKEKKRATFYLYKNIDGRKLRYLLHKLENVENVDIDTLRRAIEAEKKYKRSITLTEEEEVIIQRLGCSANLLLNAELVKLDEGERA | 2
